Patent US20220381793A1, “COMPOSITIONS AND METHODS FOR IDENTIFYING MHC-II BINDING PEPTIDES” (priority 2021, published 2022)

How the values were obtained:
[1] = molecular target: T1, “empty” DR4 (DRA*01:01/DRB1*04:01) on yeast (Homo sapiens, UniProt P01903+P01911); experiment: RIPPA competition assay, yeast displaying “empty” DR4, SARS-CoV-2 S peptides; assay type: binding; conditions: 200 μM competitor vs 20 μM Bio-HA306-318, pH 5.0, 30° C., 20 hours
T1 construct: the α chain ectodomain, with or without the Jun motif, was designed to be secreted from yeast; the DR4 β chain ectodomain, with or without the Fos motif, was engineered to the upstream of yeast AGA2 gene; Syn-pre-pro leader (secretion leader) (N); expressed in transfected cells; host or cells: Saccharomyces cerevisiae EBY100, surface display via Aga1p/Aga2p
T1 sequence (P01903 with tags, fused parts or gaps): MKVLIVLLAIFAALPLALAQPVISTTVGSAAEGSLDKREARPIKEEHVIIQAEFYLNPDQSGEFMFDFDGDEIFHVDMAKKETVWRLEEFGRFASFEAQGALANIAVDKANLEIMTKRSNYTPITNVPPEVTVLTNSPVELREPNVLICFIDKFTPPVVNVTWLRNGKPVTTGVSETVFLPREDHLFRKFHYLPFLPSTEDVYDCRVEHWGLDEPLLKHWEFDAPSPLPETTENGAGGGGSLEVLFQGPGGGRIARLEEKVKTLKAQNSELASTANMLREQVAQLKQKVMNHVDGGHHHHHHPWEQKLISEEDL
T1 sequence (P01911 with tags, fused parts or gaps with the stated changes): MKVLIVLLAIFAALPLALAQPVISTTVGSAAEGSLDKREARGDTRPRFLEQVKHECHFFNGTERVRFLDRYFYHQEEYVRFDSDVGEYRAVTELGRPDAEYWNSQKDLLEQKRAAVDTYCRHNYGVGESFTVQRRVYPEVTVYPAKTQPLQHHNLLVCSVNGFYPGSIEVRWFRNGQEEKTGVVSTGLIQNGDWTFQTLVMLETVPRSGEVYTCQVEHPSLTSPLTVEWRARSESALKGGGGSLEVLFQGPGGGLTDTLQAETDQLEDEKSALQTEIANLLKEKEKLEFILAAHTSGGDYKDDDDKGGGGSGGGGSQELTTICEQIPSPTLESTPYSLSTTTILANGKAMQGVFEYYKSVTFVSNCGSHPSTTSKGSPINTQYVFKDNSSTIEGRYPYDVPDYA
T1 sequence (P32323 25-725 partner): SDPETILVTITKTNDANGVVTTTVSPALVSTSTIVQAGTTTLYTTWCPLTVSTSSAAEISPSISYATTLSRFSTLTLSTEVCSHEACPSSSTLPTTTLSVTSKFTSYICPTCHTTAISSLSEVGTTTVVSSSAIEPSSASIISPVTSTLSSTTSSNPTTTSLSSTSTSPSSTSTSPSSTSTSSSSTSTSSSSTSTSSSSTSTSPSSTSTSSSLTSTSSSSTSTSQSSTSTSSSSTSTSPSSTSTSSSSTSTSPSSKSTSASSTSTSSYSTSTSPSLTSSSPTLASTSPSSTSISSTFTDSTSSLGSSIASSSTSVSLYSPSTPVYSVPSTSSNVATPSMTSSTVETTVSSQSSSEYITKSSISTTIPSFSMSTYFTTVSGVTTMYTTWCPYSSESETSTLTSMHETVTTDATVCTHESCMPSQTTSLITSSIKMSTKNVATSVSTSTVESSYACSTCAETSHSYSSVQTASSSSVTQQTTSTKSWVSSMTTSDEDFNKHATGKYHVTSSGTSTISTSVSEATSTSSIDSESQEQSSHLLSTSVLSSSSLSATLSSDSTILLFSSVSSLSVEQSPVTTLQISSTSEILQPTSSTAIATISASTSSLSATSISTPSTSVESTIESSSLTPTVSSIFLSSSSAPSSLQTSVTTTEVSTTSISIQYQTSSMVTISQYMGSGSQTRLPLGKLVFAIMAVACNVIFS

[2] = molecular target: T2, “empty” DQ6 (DQA1*01:02/DQB1*06:02) on yeast (Homo sapiens, UniProt P01909+P01920); experiment: RIPPA competition assay, yeast displaying “empty” DQ6, HCRT 15-mer peptides; assay type: binding; conditions: for DQ6 binding (in words): method not given, possible false positives
T2 construct: A PCR fragment carrying the extracellular domain of HLA-DQA1*0102 with C-terminal Fos was cloned into ptDR1; A second PCR fragment carrying the extracellular domain of HLA-DQB1*0602 with C-terminal Jun was cloned into pDQ6α; Syn-pre-pro leader (secretion leader) (N); expressed in transfected cells; host or cells: Saccharomyces cerevisiae EBY100, surface display via Aga1p/Aga2p
T2 sequence (P01909 with tags, fused parts or gaps with the stated changes): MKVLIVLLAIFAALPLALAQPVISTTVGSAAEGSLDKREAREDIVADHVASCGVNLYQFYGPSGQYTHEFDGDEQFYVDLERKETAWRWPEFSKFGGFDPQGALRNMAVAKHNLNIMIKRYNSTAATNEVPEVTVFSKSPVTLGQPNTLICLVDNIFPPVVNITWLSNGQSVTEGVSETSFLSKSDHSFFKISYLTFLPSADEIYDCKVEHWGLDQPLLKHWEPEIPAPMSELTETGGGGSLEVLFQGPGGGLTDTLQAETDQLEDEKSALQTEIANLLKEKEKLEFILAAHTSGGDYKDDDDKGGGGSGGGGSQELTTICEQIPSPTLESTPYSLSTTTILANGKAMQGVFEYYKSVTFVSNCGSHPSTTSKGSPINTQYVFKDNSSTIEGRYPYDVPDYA
T2 sequence (P01920 with tags, fused parts or gaps with the stated changes): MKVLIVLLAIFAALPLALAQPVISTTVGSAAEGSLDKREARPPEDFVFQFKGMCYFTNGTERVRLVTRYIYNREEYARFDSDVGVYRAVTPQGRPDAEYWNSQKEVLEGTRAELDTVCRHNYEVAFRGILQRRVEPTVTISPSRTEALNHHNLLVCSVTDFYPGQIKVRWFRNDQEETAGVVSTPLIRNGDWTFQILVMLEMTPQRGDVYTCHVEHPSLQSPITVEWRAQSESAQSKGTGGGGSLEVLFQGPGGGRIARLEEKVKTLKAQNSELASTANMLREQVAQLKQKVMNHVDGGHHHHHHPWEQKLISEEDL
T2 sequence (P32323 25-725 partner): as the sequence (P32323 25-725 partner) above
Description: FIGS. 4A-4C. RIPPA identified all DQ6 binders from HCRT. FIG. 4A. Yeast expressing “empty” DQ6 was incubated with 20 μM HCRT1-13-Bio and 200 μM of the indicated non-biotinylated HCRT 15-mer peptide at pH 5.0, 30° C. for 20 hours and analyzed by flow cytometry. % Competition=100%−% binding (% binding as calculated in FIG. 3E). Error bars represent SEM from three independent experiments. Bolded letters denote previously identified 9-aa DQ6-binding registers^4, 5, 42: […], SSGAAAQPL, NHAAGILTL and NHAAGILTM, respectively. HCRT49-63 or HCRT81-95 covers <8 aa of the previously determined registers. Binding ranks for each HCRT peptide predicted by NetMHCIIpan-4.0 (trained on both elution and binding data) are shown as 100-% rank to the left. FIGS. 4B-4C. Correlation analysis for binding data acquired using “empty” DQ6 on yeast versus soluble CLIP/DQ6 protein (FIG. 4B) or versus NetMHCIIpan-4.0 prediction (FIG. 4C). Arrows indicate peptides that show binding in one method but not the other in the comparison. Open circles in FIG. 4B match open bars in FIG. 4A, indicating ligands identified by both empirical methods.
6×10^5 galactose-induced yeast were incubated at pH 5.0, 30° C. for 20 hours with 20 μM biotinylated indicator peptides in the presence of various concentrations of a competitor peptide to determine an appropriate competitor concentration for a competition assay. […] After incubation, the yeast cells were washed with PBS+1% BSA, stained with streptavidin-AF647 and analyzed by flow cytometry as described above. […]
Sufficient amounts of galactose-induced yeast cells displaying “empty” DQ6 were collected by centrifugation at 2,500 g for 3 min and resuspended in the 40 mM citrate buffer (pH 5.0) at a density of 1.5×10^4 cells μl^−1. […] DQ6-associated HCRT1-13-Bio was labeled with streptavidin-AF647 and analyzed by flow cytometry as described above. The binding of a competitor peptide to “empty” DQ6 on yeast was quantified as % competition=100%−[(MFIwith competitor−background)/(MFIwithout competitor−background)]×100%.

Row | Substance | % competition [1] | DQ6 binding (in words) [2] | further results
1 | S1058-1074: 17-mer overlapping peptide derived from the SARS-CoV-2 S protein (HGVVFLHVTYVPAQEKN) | ~75% |  | 
2 | HCRT89-103: 15-mer overlapping peptide derived from prepro-HCRT (hypocretin precursor) (NHAAGILTMGRRAGA) |  |  | % competition ([2]; 200 μM competitor vs 20 μM HCRT1-13-Bio, pH 5.0, 30° C., 20 hours): > 75%
3 | HCRT81-95: 15-mer overlapping peptide derived from prepro-HCRT (hypocretin precursor) (QRLLQASGNHAAGIL; UniProt O43612 81-95, looked up, fragment) |  | bound DQ6 | 
4 | 5862-888: DR4 ligand peptide from the SARS-CoV-2 S protein (label probably misprinted) (PPLLTDEMIAQYTSALL) | ~75% |  | 
5 | S764-780: 17-mer overlapping peptide derived from the SARS-CoV-2 S protein (NRALTGIAVEQDKNTQE) | < 50% |  | 
6 | HCRT49-63: 15-mer overlapping peptide derived from prepro-HCRT (hypocretin precursor) (LYELLHGAGNHAAGI; UniProt O43612 49-63, looked up, fragment) |  | bound DQ6 | 
